Source: US20140274782A1, “AFFINITY REAGENTS AND METHODS FOR DETECTION, PURIFICATION, AND PROTEOMIC ANALYSIS OF METHYLATED PROTEINS” (The Board of Trustees of the Leland Stanford Junior …, priority 2013, published 2014)

T1: G9a and GLP (Homo sapiens, UniProt Q96KQ7+Q9H9B1)
T1 sequence (Q96KQ7 2-1210 limits assumed): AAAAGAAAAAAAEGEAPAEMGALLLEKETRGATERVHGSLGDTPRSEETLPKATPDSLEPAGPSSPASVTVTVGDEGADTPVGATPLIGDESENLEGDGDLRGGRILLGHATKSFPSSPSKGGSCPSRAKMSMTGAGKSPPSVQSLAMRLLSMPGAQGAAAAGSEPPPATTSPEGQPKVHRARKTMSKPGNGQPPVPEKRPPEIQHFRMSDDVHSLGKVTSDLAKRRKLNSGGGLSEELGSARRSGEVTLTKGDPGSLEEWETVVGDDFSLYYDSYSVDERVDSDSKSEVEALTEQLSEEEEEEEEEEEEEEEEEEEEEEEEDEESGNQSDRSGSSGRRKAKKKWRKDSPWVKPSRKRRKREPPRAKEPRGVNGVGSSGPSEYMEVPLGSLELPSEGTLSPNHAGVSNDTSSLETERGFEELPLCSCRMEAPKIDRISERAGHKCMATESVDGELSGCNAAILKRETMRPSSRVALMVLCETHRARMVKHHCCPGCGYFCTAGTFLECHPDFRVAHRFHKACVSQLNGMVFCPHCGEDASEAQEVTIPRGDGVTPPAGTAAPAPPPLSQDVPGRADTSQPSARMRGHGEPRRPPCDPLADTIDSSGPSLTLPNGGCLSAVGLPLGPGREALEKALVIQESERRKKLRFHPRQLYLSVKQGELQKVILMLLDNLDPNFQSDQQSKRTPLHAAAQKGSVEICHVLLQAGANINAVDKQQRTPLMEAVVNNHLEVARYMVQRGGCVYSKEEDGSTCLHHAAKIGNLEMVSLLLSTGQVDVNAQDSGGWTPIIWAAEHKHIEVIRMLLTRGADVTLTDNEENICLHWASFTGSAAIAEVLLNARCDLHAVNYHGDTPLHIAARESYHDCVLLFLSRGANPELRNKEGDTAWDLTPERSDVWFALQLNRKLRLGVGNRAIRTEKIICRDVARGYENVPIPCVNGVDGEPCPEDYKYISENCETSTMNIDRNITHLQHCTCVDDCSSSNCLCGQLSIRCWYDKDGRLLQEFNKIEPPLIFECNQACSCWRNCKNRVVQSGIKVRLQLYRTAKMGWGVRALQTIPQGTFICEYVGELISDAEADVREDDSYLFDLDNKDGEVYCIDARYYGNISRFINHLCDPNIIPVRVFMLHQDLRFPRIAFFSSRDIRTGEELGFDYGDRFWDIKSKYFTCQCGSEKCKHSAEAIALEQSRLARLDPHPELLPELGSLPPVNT
T1 sequence (Q9H9B1 2-1298 limits assumed): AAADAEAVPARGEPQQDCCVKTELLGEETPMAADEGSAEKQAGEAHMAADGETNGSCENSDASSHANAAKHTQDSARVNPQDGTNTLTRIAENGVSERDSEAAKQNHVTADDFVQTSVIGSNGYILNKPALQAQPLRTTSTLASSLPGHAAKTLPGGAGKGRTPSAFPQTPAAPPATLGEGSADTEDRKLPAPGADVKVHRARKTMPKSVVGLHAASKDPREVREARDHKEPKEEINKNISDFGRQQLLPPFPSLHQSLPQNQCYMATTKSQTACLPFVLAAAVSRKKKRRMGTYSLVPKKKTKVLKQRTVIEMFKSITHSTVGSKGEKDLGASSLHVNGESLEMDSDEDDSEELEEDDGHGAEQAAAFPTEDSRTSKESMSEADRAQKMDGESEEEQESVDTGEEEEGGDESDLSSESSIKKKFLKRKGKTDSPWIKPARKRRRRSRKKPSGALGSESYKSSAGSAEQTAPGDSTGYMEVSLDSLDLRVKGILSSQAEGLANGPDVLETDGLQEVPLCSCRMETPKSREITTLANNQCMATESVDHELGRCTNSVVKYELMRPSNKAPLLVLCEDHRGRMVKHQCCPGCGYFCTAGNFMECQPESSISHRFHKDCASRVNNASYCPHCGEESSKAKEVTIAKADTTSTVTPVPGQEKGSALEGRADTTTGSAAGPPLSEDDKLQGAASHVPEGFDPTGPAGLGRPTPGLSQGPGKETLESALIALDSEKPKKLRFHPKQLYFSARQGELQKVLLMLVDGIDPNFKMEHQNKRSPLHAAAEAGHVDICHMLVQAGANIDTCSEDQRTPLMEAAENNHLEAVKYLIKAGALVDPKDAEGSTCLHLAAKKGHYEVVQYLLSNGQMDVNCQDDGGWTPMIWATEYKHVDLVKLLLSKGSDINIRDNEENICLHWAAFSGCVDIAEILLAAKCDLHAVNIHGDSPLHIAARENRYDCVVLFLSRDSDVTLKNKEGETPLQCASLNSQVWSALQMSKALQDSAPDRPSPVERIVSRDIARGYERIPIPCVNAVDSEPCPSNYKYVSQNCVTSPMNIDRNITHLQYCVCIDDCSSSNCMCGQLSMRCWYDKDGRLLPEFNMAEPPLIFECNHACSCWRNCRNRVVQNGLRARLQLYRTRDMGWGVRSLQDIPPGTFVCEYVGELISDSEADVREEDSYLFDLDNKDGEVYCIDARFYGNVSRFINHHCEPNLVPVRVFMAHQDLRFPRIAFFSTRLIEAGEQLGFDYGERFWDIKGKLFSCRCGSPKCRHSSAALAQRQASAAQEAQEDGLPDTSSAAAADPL

B1: TCERG1 (protein, UniProt O14776 1-1098, looked up)
Transcription elongation …: MAERGGDGGESERFNPGELRMAQQQALRFRGPAPPPNAVMRGPPPLMRPPPPFGMMRGPPPPPRPPFGRPPFDPNMPPMPPPGGIPPPMGPPHLQRPPFMPPPMSSMPPPPGMMFPPGMPPVTAPGTPALPPTEEIWVENKTPDGKVYYYNARTRESAWTKPDGVKVIQQSELTPMLAAQAQVQAQAQAQAQAQAQAQAQAQAQAQAQAQAQAQAQAQAQAQAQAQAQAQAQAQAQAQAQAQVQAQVQAQVQAQAVGASTPTTSSPAPAVSTSTSSSTPSSTTSTTTTATSVAQTVSTPTTQDQTPSSAVSVATPTVSVSTPAPTATPVQTVPQPHPQTLPPAVPHSVPQPTTAIPAFPPVMVPPFRVPLPGMPIPLPGVAMMQIVSCPYVKTVATTKTGVLPGMAPPIVPMIHPQVAIAASPATLAGATAVSEWTEYKTADGKTYYYNNRTLESTWEKPQELKEKEKLEEKIKEPIKEPSEEPLPMETEEEDPKEEPIKEIKEEPKEEEMTEEEKAAQKAKPVATAPIPGTPWCVVWTGDERVFFYNPTTRLSMWDRPDDLIGRADVDKIIQEPPHKKGMEELKKLRHPTPTMLSIQKWQFSMSAIKEEQELMEEINEDEPVKAKKRKRDDNKDIDSEKEAAMEAEIKAARERAIVPLEARMKQFKDMLLERGVSAFSTWEKELHKIVFDPRYLLLNPKERKQVFDQYVKTRAEEERREKKNKIMQAKEDFKKMMEEAKFNPRATFSEFAAKHAKDSRFKAIEKMKDREALFNEFVAAARKKEKEDSKTRGEKIKSDFFELLSNHHLDSQSRWSKVKDKVESDPRYKAVDSSSMREDLFKQYIEKIAKNLDSEKEKELERQARIEASLREREREVQKARSEQTKEIDREREQHKREEAIQNFKALLSDMVRSSDVSWSDTRRTLRKDHRWESGSLLEREEKEKLFNEHIEALTKKKREHFRQLLDETSAITLTSTWKEVKKIIKEDPRCIKFSSSDRKKQREFEEYIRDKYITAKADFRTLLKETKFITYRSKKLIQESDQHLKDVEKILQNDKRYLVLDCVPEERRKLIVAYVDDLDRRGPPPPPTASEPTRRSTK
B2: HNRNPC (protein, UniProt P07910 2-306, looked up)
Heterogeneous nuclear …: ASNVTNKTDPRSMNSRVFIGNLNTLVVKKSDVEAIFSKYGKIVGCSVHKGFAFVQYVNERNARAAVAGEDGRMIAGQVLDINLAAEPKVNRGKAGVKRSAAEMYGSVTEHPSPSPLLSSSFDLDYDFQRDYYDRMYSYPARVPPPPPIARAVVPSKRQRVSGNTSRRGKSGFNSKSGQRGSSKSGKLKGDDLQAIKKELTQIKQKVDSLLENLEKIEKEQSKQAVEMKNDKSEEEQSSSSVKKDETNVKMESEGGADDSAEEGDLLDDDDNEDRGDDQLELIKDDEKEAEEGEDDRDSANGEDDS
B3: PUM1 (protein, UniProt Q14671 2-1186, looked up)
Pumilio homolog 1: SVACVLKRKAVLWQDSFSPHLKHHPQEPANPNMPVVLTSGTGSQAQPQPAANQALAAGTHSSPVPGSIGVAGRSQDDAMVDYFFQRQHGEQLGGGGSGGGGYNNSKHRWPTGDNIHAEHQVRSMDELNHDFQALALEGRAMGEQLLPGKKFWETDESSKDGPKGIFLGDQWRDSAWGTSDHSVSQPIMVQRRPGQSFHVNSEVNSVLSPRSESGGLGVSMVEYVLSSSPGDSCLRKGGFGPRDADSDENDKGEKKNKGTFDGDKLGDLKEEGDVMDKTNGLPVQNGIDADVKDFSRTPGNCQNSANEVDLLGPNQNGSEGLAQLTSTNGAKPVEDFSNMESQSVPLDPMEHVGMEPLQFDYSGTQVPVDSAAATVGLFDYNSQQQLFQRPNALAVQQLTAAQQQQYALAAAHQPHIGLAPAAFVPNPYIISAAPPGTDPYTAGLAAAATLGPAVVPHQYYGVTPWGVYPASLFQQQAAAAAAATNSANQQTTPQAQQGQQQVLRGGASQRPLTPNQNQQGQQTDPLVAAAAVNSALAFGQGLAAGMPGYPVLAPAAYYDQTGALVVNAGARNGLGAPVRLVAPAPVIISSSAAQAAVAAAAASANGAAGGLAGTTNGPFRPLGTQQPQPQPQQQPNNNLASSSFYGNNSLNSNSQSSSLFSQGSAQPANTSLGFGSSSSLGATLGSALGGFGTAVANSNTGSGSRRDSLTGSSDLYKRTSSSLTPIGHSFYNGLSFSSSPGPVGMPLPSQGPGHSQTPPPSLSSHGSSSSLNLGGLTNGSGRYISAAPGAEAKYRSASSASSLFSPSSTLFSSSRLRYGMSDVMPSGRSRLLEDFRNNRYPNLQLREIAGHIMEFSQDQHGSRFIQLKLERATPAERQLVFNEILQAAYQLMVDVFGNYVIQKFFEFGSLEQKLALAERIRGHVLSLALQMYGCRVIQKALEFIPSDQQNEMVRELDGHVLKCVKDQNGNHVVQKCIECVQPQSLQFIIDAFKGQVFALSTHPYGCRVIQRILEHCLPDQTLPILEELHQHTEQLVQDQYGNYVIQHVLEHGRPEDKSKIVAEIRGNVLVLSQHKFASNVVEKCVTHASRTERAVLIDEVCTMNDGPHSALYTMMKDQYANYVVQKMIDVAEPGQRKIVMHKIRPHIATLRKYTYGKHILAKLEKYYMKNGVDLGPICGPPNGII
B4: FAM98B (protein, UniProt Q52LJ0 1-433, looked up)
Protein FAM98B: MRGPEPGPQPTMEGDVLDTLEALGYKGPLLEEQALTKAAEGGLSSPEFSELCIWLGSQIKSLCNLEESITSAGRDDLESFQLEISGFLKEMACPYSVLISGDIKDRLKKKEDCLKLLLFLSTELQASQILQNKKHKNSQLDKNSEVYQEVQAMFDTLGIPKSTTSDIPHMLNQVESKVKDILSKVQKNHVGKPLLKMDLNSEQAEQLERINDALSCEYECRRRMLMKRLDVTVQSFGWSDRAKVKTDDIARIYQPKRYALSPKTTITMAHLLAAREDLSKIIRTSSGTSREKTACAINKVLMGRVPDRGGRPNEIEPPPPEMPPWQKRQEGGGGRGGWGGGGGGGGRGGGGGGGGRGGWGGGGGGWGGGGGGGGGWGGGGGGGRGGFQGRGDYGGRGGYGGRGGYGGRGYGDPYGGGGGGGGGGGGGGGYRRY

What follows are molecules tested on 3×MBT domain of L3MBTL1 (assay: Triple SILAC pull-down, 3xMBT/3xMBTD355N ratio (cytoplasmic, nuclear and chromatin fractions of 293T cells)). Conditions: SILAC ratio, pull-down 3xMBT vs 3xMBTD355N; experiment with UNC0638 in heavy SILAC media.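 Further: proteins quantified with MaxQuant, requiring at least two unique peptides and quantification in both label directions, normalized to the mean of proteins from a digested loading control.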
Type: binding, human
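Wherever Relative to UNC0638 Average is given: mass spectrometry (Q-Exactive) SILAC quantitation, DMSO/UNC0638 ratio computed after subtracting 3×MBTD355N mutant pull-down background, only proteins with at least twofold 3×MBT over mutant signal considered.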
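Wherever Relative to UNC0638 UNC Heavy is given: mass spectrometry (Q-Exactive) SILAC quantitation, DMSO/UNC0638 ratio computed after subtracting 3×MBTD355N mutant pull-down background, only proteins with at least twofold 3×MBT over mutant signal considered.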
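Wherever Relative to UNC0638 UNC Light is given: mass spectrometry (Q-Exactive) SILAC quantitation, DMSO/UNC0638 ratio computed after subtracting 3×MBTD355N mutant pull-down background, only proteins with at least twofold 3×MBT over mutant signal considered.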

Row | Molecule | 3xMBT/D355N UNC Heavy [log base 2]
1 | B1 | 2.34
2 | B2 | 2.39
3 | B3 | 2.08
4 | B4 | 3.88

Same assay, conditions: SILAC ratio, pull-down 3xMBT vs 3xMBTD355N; experiment with UNC0638 in light SILAC media

Row | Molecule | 3xMBT/D355N UNC Light [log base 2]
5 | B1 | 3.64
6 | B2 | 2.62
7 | B3 | 1.66
8 | B4 | 3.18

Each molecule was assayed against T1, G9a and GLP (assay: Triple SILAC pull-down after UNC0638 treatment of 293T cells, DMSO/UNC0638 ratio of protein captured by 3×MBT). Conditions: SILAC ratio DMSO/UNC0638 of protein pulled down with 3xMBT; UNC0638 in heavy SILAC media.
Type: cell-based
Parameters: cells were treated for 24 hours with UNC0638 at 2.5 μM or DMSO vehicle control; endogenous in cells; host or cells: HEK 293T

Row | Molecule | Relative to UNC0638 UNC Heavy [log base 2]
9 | B1 | −0.10
10 | B2 | 0.07
11 | B3 | 0.35
12 | B4 | 0.11

Same assay, conditions: SILAC ratio DMSO/UNC0638 of protein pulled down with 3xMBT; UNC0638 in light SILAC media

Row | Molecule | Relative to UNC0638 UNC Light [log base 2]
13 | B1 | 0.37
14 | B2 | 0.20
15 | B3 | −0.08
16 | B4 | 0.14

Same assay, conditions: average of UNC Light and UNC Heavy experiments

Row | Molecule | Relative to UNC0638 Average [log base 2]
17 | B1 | 0.13
18 | B2 | 0.13
19 | B3 | 0.13
20 | B4 | 0.13
